{"source": "patent US20240116985A1", "about": "“STAPLED PEPTIDES AND METHODS THEREOF” (priority 2020, published 2024)", "binders": {"B1": {"name": "I-2606 (peptide)", "peptide": "BzAm2Allyl-XD[B5(3)]ADDAAF[PyrS2]L[3Thi][Bta]Q-NH2", "modifications": "staple 3-10; staple (positions not given here); not fully specified (residue 1, bridges); printed as BzAm2Allyl-MePro-Asp-B5-Ala-Asp-Asp-Ala-Ala-Phe-PyrS2-Leu-3Thi-BztA-Gln-NH2; also: -CH=CH- in each staple reduced to -CH2-CH2-"}, "B2": {"name": "I-2607 (peptide)", "peptide": "BzAm2Allyl-XD[B5(3)]AD[Phe(3-COOH)]AAF[PyrS2]L[3Thi][Bta]Q-NH2", "modifications": "staple 3-10; staple (positions not given here); not fully specified (residue 1, bridges); printed as BzAm2Allyl-MePro-Asp-B5-Ala-Asp-3COOHF-Ala-Ala-Phe-PyrS2-Leu-3Thi-BztA-Gln-NH2; also: -CH=CH- in each staple reduced to -CH2-CH2-"}, "B3": {"name": "I-2600 (peptide)", "peptide": "5hexenyl-XD[B5(3)]ADDAAF[PyrS2]L[3Thi][Bta]Q-NH2", "modifications": "staple 3-10; staple (positions not given here); not fully specified (residue 1, bridges); printed as 5hexenyl-MePro-Asp-B5-Ala-Asp-Asp-Ala-Ala-Phe-PyrS2-Leu-3Thi-BztA-Gln-NH2; also: -CH=CH- in each staple reduced to -CH2-CH2-"}, "B4": {"name": "I-2601 (peptide)", "peptide": "4pentenyl-XD[B5(3)]ADDAAF[PyrS2]L[3Thi][Bta]Q-NH2", "modifications": "staple 3-10; staple (positions not given here); not fully specified (residue 1, bridges); printed as 4pentenyl-MePro-Asp-B5-Ala-Asp-Asp-Ala-Ala-Phe-PyrS2-Leu-3Thi-BztA-Gln-NH2; also: -CH=CH- in each staple reduced to -CH2-CH2-"}, "B5": {"name": "I-2602 (peptide)", "peptide": "5hexenyl-XD[B5(3)]AD[Phe(3-COOH)]AAF[PyrS2]L[3Thi][Bta]Q-NH2", "modifications": "staple 3-10; staple (positions not given here); not fully specified (residue 1, bridges); printed as 5hexenyl-MePro-Asp-B5-Ala-Asp-3COOHF-Ala-Ala-Phe-PyrS2-Leu-3Thi-BztA-Gln-NH2"}, "B6": {"name": "I-2603 (peptide)", "peptide": "4pentenyl-XD[B5(3)]AD[Phe(3-COOH)]AAF[PyrS2]L[3Thi][Bta]Q-NH2", "modifications": "staple 3-10; staple (positions not given here); not fully specified (residue 1, bridges); printed as 4pentenyl-MePro-Asp-B5-Ala-Asp-3COOHF-Ala-Ala-Phe-PyrS2-Leu-3Thi-BztA-Gln-NH2"}, "B7": {"name": "I-2604 (peptide)", "peptide": "5hexenyl-XD[B5(3)]AD[Phe(3-COOH)]AAF[PyrS2]L[3Thi][Bta]Q-NH2", "modifications": "staple 3-10; staple (positions not given here); not fully specified (residue 1, bridges); printed as 5hexenyl-MePro-Asp-B5-Ala-Asp-3COOHF-Ala-Ala-Phe-PyrS2-Leu-3Thi-BztA-Gln-NH2; also: -CH=CH- in each staple reduced to -CH2-CH2-"}, "B8": {"name": "I-2605 (peptide)", "peptide": "4pentenyl-XD[B5(3)]AD[Phe(3-COOH)]AAF[PyrS2]L[3Thi][Bta]Q-NH2", "modifications": "staple 3-10; staple (positions not given here); not fully specified (residue 1, bridges); printed as 4pentenyl-MePro-Asp-B5-Ala-Asp-3COOHF-Ala-Ala-Phe-PyrS2-Leu-3Thi-BztA-Gln-NH2; also: -CH=CH- in each staple reduced to -CH2-CH2-"}, "B9": {"name": "I-2608 (peptide)", "peptide": "3butenyl-XD[B5(3)]ADDAAF[PyrS2]L[3Thi][Bta]Q-NH2", "modifications": "staple 3-10; staple (positions not given here); not fully specified (residue 1, bridges); printed as 3butenyl-MePro-Asp-B5-Ala-Asp-Asp-Ala-Ala-Phe-PyrS2-Leu-3Thi-BztA-Gln-NH2; also: -CH=CH- in each staple reduced to -CH2-CH2-"}, "B10": {"name": "I-2609 (peptide)", "peptide": "5hexenyl-XD[B5(3)]ADDAAF[PyrS2]L[3Thi][Bta]Q-NH2", "modifications": "staple 3-10; staple (positions not given here); not fully specified (residue 1, bridges); printed as 5hexenyl-MePro-Asp-B5-Ala-Asp-Asp-Ala-Ala-Phe-PyrS2-Leu-3Thi-BztA-Gln-NH2; also: -CH=CH- in each staple reduced to -CH2-CH2-"}}, "note": "Starred links: 1 amine or outer side, 2 acyl side, 3 side chain; linkers in the order of their positions; H or OH if unused. Positions of bridges follow the written chain, without caps; N, C: chain ends. Non-standard residues stand in square brackets, D forms with d. Primed or numbered codes have the meaning given here. *: point of attachment. PyrS2″ = (S)-3-amino-1-((pent-4-en-1-yloxy)carbonyl)pyrrolidine-3-carboxylic acid (stapling residue), C=CCCCOC(=O)N1CC[C@@](N[*:1])(C(=O)[*:2])C1; PyrS2 = (S)-3-amino-1-((pent-4-en-1-yloxy)carbonyl)pyrrolidine-3-carboxylic acid, C=CCCCOC(=O)N1CC[C@@](N[*:1])(C(=O)[*:2])C1; B5(12) = 2-amino-2-(pent-4-en-1-yl)hept-6-enoic acid (two olefin side chains), C=CCCCC(CCCC=C)(N[*:1])C(=O)[*:2]; B5(19) = 2-amino-2-(pent-4-en-1-yl)hept-6-enoic acid (bis(4-pentenyl)glycine), C=CCCCC(CCCC=C)(N[*:1])C(=O)[*:2]; B5(3) = 2,2-bis(4-pentenyl)glycine (stitching residue), C=CCCCC(CCCC=C)(N[*:1])C(=O)[*:2]; BzAm2Allyl = N-terminal 2-allylbenzoic acid (acyl cap), C=CCc1ccccc1C(=O)*; 4pentenyl = N-terminal pent-4-enoic acid (acyl cap), C=CCCC(=O)*; 5hexenyl = N-terminal hex-5-enoic acid (acyl cap), C=CCCCC(=O)*; 3butenyl = N-terminal but-3-enoic acid (acyl cap), C=CCC(=O)*; Phe(3-COOH) = N[C@@H](Cc1cccc(C(=O)O)c1)C(=O)O; Bta = N[C@@H](Cc1csc2ccccc12)C(=O)O; αAllylPro = C=CC[C@@]1(C(=O)O)CCCN1; 3Thi = N[C@@H](Cc1ccsc1)C(=O)O; Nle = CCCC[C@H](N)C(=O)O"}
{"target": "full-length beta-Catenin (Uniprot ID P35222) (Homo sapiens (Human)) (UniProt P35222)", "assay": "cell-based or functional assay", "units": {"DLD1 4% Abs IC50": "nM"}}
{"binder": "B1", "DLD1 4% Abs IC50": "> 20000"}
{"binder": "B2", "DLD1 4% Abs IC50": "> 20000"}
{"target": "full-length beta-Catenin (Uniprot ID P35222) (Homo sapiens (Human)) (UniProt P35222)", "assay": "fluorescence polarization competition against 5FAM TCF4 10-53 probe", "units": {"IC50": "nM"}}
{"binder": "B1", "IC50": 734}
{"binder": "B2", "IC50": 904}
{"binder": "B3", "IC50": 923}
{"binder": "B4", "IC50": 592}
{"binder": "B5", "IC50": 8220}
{"binder": "B6", "IC50": 767}
{"binder": "B7", "IC50": 1120}
{"binder": "B8", "IC50": 608}
{"binder": "B9", "IC50": 251}
{"binder": "B10", "IC50": 2650}
{"target": "Bcat-Halo (beta-catenin HaloTag construct expressed in HEK293 cells) (UniProt P35222)", "sequence (P35222 whole entry)": "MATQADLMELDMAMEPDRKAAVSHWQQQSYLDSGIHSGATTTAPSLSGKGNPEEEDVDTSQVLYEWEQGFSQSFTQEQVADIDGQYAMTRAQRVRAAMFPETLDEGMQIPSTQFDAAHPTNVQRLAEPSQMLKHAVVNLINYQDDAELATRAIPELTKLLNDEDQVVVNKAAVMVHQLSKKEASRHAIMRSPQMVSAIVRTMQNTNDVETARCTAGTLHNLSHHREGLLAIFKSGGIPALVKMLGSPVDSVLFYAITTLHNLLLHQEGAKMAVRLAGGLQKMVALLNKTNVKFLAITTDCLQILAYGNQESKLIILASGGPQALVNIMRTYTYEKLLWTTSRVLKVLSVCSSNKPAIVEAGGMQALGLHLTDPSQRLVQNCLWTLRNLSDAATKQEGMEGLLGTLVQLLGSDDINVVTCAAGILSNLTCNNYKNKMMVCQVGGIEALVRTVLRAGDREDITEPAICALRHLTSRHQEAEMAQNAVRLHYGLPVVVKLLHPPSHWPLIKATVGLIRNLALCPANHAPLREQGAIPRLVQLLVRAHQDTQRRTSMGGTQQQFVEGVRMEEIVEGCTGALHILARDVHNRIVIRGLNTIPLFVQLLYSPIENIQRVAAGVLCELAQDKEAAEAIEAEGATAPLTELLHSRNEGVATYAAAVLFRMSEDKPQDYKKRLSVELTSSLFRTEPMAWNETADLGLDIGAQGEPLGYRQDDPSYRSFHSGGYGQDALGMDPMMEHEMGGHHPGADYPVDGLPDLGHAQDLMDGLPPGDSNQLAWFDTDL", "assay": "NanoBRET Abs IC50 in HEK293 cells; B-cat-Halo with competitor TCF4-Luc", "units": {"IC50": "nM"}}
{"binder": "Ac-[αAllylPro]D[Nle][B5(19)]DDAAF[Nle][PyrS2][3Thi][Bta]Q-NH2 (staple 1-4, 4-11)", "note": "[I-1401]", "IC50": 21400}
{"binder": "Ac-[αAllylPro]DL[B5(12)]DDAAF[Nle][PyrS2″]F[Bta]Q-NH2 (staple 1-4, 4-11)", "note": "[I-1404]", "IC50": 36800}
{"target": "full-length beta-Catenin (Uniprot ID P35222) (Homo sapiens (Human)) (UniProt P35222)", "assay": "fluorescence polarization competition; full-length beta-catenin, competitor 5FAM-TCF4 10-53 probe", "units": {"IC50": "nM"}}
{"binder": "Ac-[αAllylPro]D[Nle][B5(19)]DDAAF[Nle][PyrS2][3Thi][Bta]Q-NH2 (staple 1-4, 4-11)", "note": "[I-1401]", "IC50": 5}
{"binder": "Ac-[αAllylPro]DL[B5(12)]DDAAF[Nle][PyrS2″]F[Bta]Q-NH2 (staple 1-4, 4-11)", "note": "[I-1404]", "IC50": 113}
{"target": "beta-catenin (Homo sapiens (Human)) (UniProt P35222)", "sequence (P35222 whole entry)": "as above", "assay": "fluorescence polarization competition; full-length beta-catenin with 5FAM-TCF4(10-53) probe as competitor", "units": {"EC50": "nM"}}
{"binder": "Ac-[αAllylPro]D[Nle][B5(19)]DDAAF[Nle][PyrS2][3Thi][Bta]Q-NH2 (staple 1-4, 4-11)", "note": "[I-1401]", "EC50": 5}
{"binder": "Ac-[αAllylPro]DL[B5(12)]DDAAF[Nle][PyrS2″]F[Bta]Q-NH2 (staple 1-4, 4-11)", "note": "[I-1404]", "EC50": 113}
